The assay deals with Met (hepatocyte growth factor receptor, c-Met) on Hep3B cells (human) (UniProt P08581). As to the kind of experiment: flow cytometry saturation binding on Hep3B (cytochalasin D pre-treated), specific binding after subtraction of binding in saturating HGF; 0.015 wt % MC40 (~6 peptides/particle). For orientation: In flow cytometry, cells or beads pass a laser one at a time.

Among the data in US20140079774A1 are Kd values, retold here.

Where no end group is shown, it is not given here.

UniProt P08581, sequence (P08581 25-1390): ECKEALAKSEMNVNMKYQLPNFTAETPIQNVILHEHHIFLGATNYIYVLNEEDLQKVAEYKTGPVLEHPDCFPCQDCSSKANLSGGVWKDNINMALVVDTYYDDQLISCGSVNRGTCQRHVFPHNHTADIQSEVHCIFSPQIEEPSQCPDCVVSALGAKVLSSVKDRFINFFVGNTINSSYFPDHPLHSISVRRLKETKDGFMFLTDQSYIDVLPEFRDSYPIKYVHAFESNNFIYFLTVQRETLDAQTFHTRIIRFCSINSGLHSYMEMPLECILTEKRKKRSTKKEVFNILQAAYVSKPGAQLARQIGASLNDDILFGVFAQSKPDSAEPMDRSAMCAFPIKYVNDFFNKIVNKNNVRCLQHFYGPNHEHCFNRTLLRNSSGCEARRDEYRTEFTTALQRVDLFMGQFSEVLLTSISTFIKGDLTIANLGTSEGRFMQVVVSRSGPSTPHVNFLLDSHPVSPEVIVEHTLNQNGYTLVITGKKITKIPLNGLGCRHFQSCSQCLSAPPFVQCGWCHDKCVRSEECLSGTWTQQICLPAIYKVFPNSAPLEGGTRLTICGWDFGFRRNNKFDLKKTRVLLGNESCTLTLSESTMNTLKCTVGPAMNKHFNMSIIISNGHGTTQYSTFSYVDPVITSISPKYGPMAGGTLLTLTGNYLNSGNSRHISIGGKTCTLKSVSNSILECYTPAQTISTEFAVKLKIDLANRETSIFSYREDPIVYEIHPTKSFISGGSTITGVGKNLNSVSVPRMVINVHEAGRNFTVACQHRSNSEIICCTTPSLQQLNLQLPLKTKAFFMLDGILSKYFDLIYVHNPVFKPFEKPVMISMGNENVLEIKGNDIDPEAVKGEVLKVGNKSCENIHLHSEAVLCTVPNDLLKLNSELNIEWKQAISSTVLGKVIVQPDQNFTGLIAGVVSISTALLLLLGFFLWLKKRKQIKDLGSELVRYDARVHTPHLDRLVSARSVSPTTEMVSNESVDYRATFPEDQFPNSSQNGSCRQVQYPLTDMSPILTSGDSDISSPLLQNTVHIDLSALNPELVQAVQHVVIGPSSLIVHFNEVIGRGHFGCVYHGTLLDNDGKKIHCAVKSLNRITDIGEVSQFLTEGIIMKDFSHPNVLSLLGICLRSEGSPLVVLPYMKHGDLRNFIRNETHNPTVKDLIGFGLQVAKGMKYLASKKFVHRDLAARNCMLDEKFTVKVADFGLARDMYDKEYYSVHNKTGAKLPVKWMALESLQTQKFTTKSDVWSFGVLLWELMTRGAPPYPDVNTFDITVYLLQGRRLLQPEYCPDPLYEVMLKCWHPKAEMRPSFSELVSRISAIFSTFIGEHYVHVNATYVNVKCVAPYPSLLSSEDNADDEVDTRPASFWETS

B1: MC40-targeted protocells (mesoporous silica nanoparticle-supported lipid bilayers displaying the MC40 targeting peptide) (peptide, not shown: small tags and cut ends)
peptide: ASVHFPPC
modifications: also: C-terminal Cys conjugated via crosslinker to DOPE in the lipid bilayer of a mesoporous silica protocell
Usually Kd stands for a measure of binding affinity in units of concentration. As to B1, the Kd amounted to 1.05 nM.
